Laboratory results published in US20210017226A1, “METHOD OF GENERATING INTERACTING PEPTIDES” (Peption, LLC, priority 2017, published 2021).
Ends that are not written are not given here.

Tests used:
[1] = target: T1, PTD12 (Sp-C9_CAA813-821), synthetic Cas9 target peptide […] (Streptococcus pyogenes); assay: dot blot densitometry, same amount of purified proteins
[2] = target: T1, PTD12 (Sp-C9_CAA813-821), synthetic …; assay: dot blot densitometry

MHHHHHHELLLSVEVQQLCYPENLEYLFIEKL (designed binder, not shown: small tags and cut ends; large carriers) [C9-813-CAA2 (dimer, parallel-linker-antiparallel), recombinant CAAP oligopeptide-AP fusion protein]
fold stronger interaction than C9-813-92P or C9-813-93P (monomers) [1]: 2.5 fold
fold stronger interaction than C9-813-CAA4 (tetramer) [1]: 1.5 fold

B1: C9-813-CAA4 (tetramer, parallel-linker-antiparallel-linker-parallel-linker-antiparallel), recombinan (designed binder)
chain: MHHHHHHLLSVEVQQLCYPENLEYLFIEKLRSEAEGNGTIDFELLQVDVILLKTGEVNNLEQIKIRLF
fold stronger interaction than the monomers (C9-813-92P, C9-813-93P) [2]: 1.5 fold

LLQVDVILLCYPENLEQIKIRLFGSGSHHHHHH (designed binder, also: dimer) [PTD14 (Sp-C9_CAA813-821PAPH), synthetic His-tagged CAAP oligopeptide dimer]
fold stronger interaction than the monomer PTD13 [2]: 2 fold
fold stronger interaction than the sAb monomer PTD13 [2]: 2 fold
